# Experimental data taken from article PMC10663500, “High-throughput analysis system of interaction kinetics for data-driven antibody design” (Scientific Reports, 2023).
# Legend:
# [1] = target: T1, mouse programmed cell death protein 1 Fc fusion protein (mPD-1-Fc), mPD-1 C60S (aa 25-167) (Mus musculus, UniProt Q02242, stabilised); experiment: SPR; Carterra LSA; Fab from the ammonium sulfate precipitate of the culture supernatant immobilised on a NiHC200M chip; hPD-1 (1-1024 nM) or mPD-1-Fc (4-1024 nM) as analyte, fourfold dilution series, no regeneration; HBS-EP pH 7.4, 25 °C; medians over the spots of a construct, KD = koff/kon; details: one partner purified
# T1 construct: not cleaved; source: Expi293F, purified (Protein A, SEC; dimeric fraction); not shown: Fc (human), C-terminal, kept
# Method in brief: (§1)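 Fabs, ammonium sulfate-precipitated from Brevibacillus supernatants and redissolved in HBS-EP, were captured in duplicate on a NiHC200M chip on a Carterra LSA at 25 °C. Fourfold series of human PD-1 (1–1024 nM) or mouse PD-1-Fc (4–1024 nM) were run without regeneration, with association for 10 min and dissociation for 5 min. Rates were fitted with the kdka model, choosing the better of slow- or fast-dissociation settings, and unconfirmed binders were given kon 10^3 […] and koff 10^−2 s^−1. The dissociation constant KD is koff/kon based on per-construct medians.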
# [2] = target: T2, human programmed cell death protein 1 (hPD-1) C93S (aa 24-167) (Homo sapiens, UniProt Q15116, C93S); experiment: as above; details: one partner purified
# T2 construct: made as a fusion with a TEV site and human Fc; the Fc was cut off with TEV protease; source: Expi293F, purified (Protein A, TEV cleavage of Fc, SEC; monomer fractions); not shown: Fc (human), C-terminal, cleaved
# Method in brief: as §1
# T2 sequence (Q15116 24-167 C93S): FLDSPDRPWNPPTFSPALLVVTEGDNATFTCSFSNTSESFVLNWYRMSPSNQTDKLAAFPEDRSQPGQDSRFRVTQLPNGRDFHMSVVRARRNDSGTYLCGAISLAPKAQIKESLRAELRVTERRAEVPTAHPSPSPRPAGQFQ
Binder,Kd [1] [nM],koff [1] [s⁻¹],kon [1] [M⁻¹ s⁻¹],Kd [2] [nM],koff [2] [s⁻¹],kon [2] [M⁻¹ s⁻¹]
"toripalimab Fab L.L101A (Fab, V domains shown, as the heavy chain of Sm3; light chain of Sm3 with this change; numbers count from the chain's first residue; source: Brevibacillus, culture supernatant (ammonium sulfate precipitate); not shown: 6xHis, C-terminal, kept; 6xHN, C-terminal, kept) VH: QGQLVQSGAEVKKPGASVKVSCKASGYTFTDYEMHWVRQAPIHGLEWIGVIESETGGTAYNQKFKGRVTITADKSTSTAYMELSSLRSEDTAVYYCAREGITTVATTYYWYFDVWGQGTTVTVSS VL: DVVMTQSPLSLPVTLGQPASISCRSSQSIVHSNGNTYLEWYLQKPGQSPQLLIYKVSNRFSGVPDRFSGSGSGTDFTLKISRVEAEDVGVYYCFQGSHVPATFGQGTKLEIK",26.6,0.000225,8470,< 1.61,< 1e-05,6210
"toripalimab Fab L.L101T (Fab, V domains shown, as the heavy chain of Sm3; light chain of Sm3 with this change; numbers count from the chain's first residue; source: Brevibacillus, culture supernatant (ammonium sulfate precipitate); not shown: 6xHis, C-terminal, kept; 6xHN, C-terminal, kept) VH: QGQLVQSGAEVKKPGASVKVSCKASGYTFTDYEMHWVRQAPIHGLEWIGVIESETGGTAYNQKFKGRVTITADKSTSTAYMELSSLRSEDTAVYYCAREGITTVATTYYWYFDVWGQGTTVTVSS VL: DVVMTQSPLSLPVTLGQPASISCRSSQSIVHSNGNTYLEWYLQKPGQSPQLLIYKVSNRFSGVPDRFSGSGSGTDFTLKISRVEAEDVGVYYCFQGSHVPTTFGQGTKLEIK",116,0.00235,20400,5.05,3.03e-05,6000
"toripalimab Fab H.S53Y (Fab, V domains shown, heavy chain of Sm3 with this change; numbers count from the chain's first residue; as the light chain of Sm3; source: Brevibacillus, culture supernatant (ammonium sulfate precipitate); not shown: 6xHis, C-terminal, kept; 6xHN, C-terminal, kept) VH: QGQLVQSGAEVKKPGASVKVSCKASGYTFTDYEMHWVRQAPIHGLEWIGVIEYETGGTAYNQKFKGRVTITADKSTSTAYMELSSLRSEDTAVYYCAREGITTVATTYYWYFDVWGQGTTVTVSS VL: DVVMTQSPLSLPVTLGQPASISCRSSQSIVHSNGNTYLEWYLQKPGQSPQLLIYKVSNRFSGVPDRFSGSGSGTDFTLKISRVEAEDVGVYYCFQGSHVPLTFGQGTKLEIK",187,0.00628,33500,< 1.18,< 1e-05,8440
"toripalimab Fab H.E54A (Fab, V domains shown, heavy chain of Sm3 with this change; numbers count from the chain's first residue; as the light chain of Sm3; source: Brevibacillus, culture supernatant (ammonium sulfate precipitate); not shown: 6xHis, C-terminal, kept; 6xHN, C-terminal, kept) VH: QGQLVQSGAEVKKPGASVKVSCKASGYTFTDYEMHWVRQAPIHGLEWIGVIESATGGTAYNQKFKGRVTITADKSTSTAYMELSSLRSEDTAVYYCAREGITTVATTYYWYFDVWGQGTTVTVSS VL: DVVMTQSPLSLPVTLGQPASISCRSSQSIVHSNGNTYLEWYLQKPGQSPQLLIYKVSNRFSGVPDRFSGSGSGTDFTLKISRVEAEDVGVYYCFQGSHVPLTFGQGTKLEIK",202,0.00772,38300,1.23,2.52e-05,20400
"toripalimab Fab L.L101D (Fab, V domains shown, as the heavy chain of Sm3; light chain of Sm3 with this change; numbers count from the chain's first residue; source: Brevibacillus, culture supernatant (ammonium sulfate precipitate); not shown: 6xHis, C-terminal, kept; 6xHN, C-terminal, kept) VH: QGQLVQSGAEVKKPGASVKVSCKASGYTFTDYEMHWVRQAPIHGLEWIGVIESETGGTAYNQKFKGRVTITADKSTSTAYMELSSLRSEDTAVYYCAREGITTVATTYYWYFDVWGQGTTVTVSS VL: DVVMTQSPLSLPVTLGQPASISCRSSQSIVHSNGNTYLEWYLQKPGQSPQLLIYKVSNRFSGVPDRFSGSGSGTDFTLKISRVEAEDVGVYYCFQGSHVPDTFGQGTKLEIK",172,0.0046,26800,< 1.66,< 1e-05,6020
"toripalimab Fab L.L101N (Fab, V domains shown, as the heavy chain of Sm3; light chain of Sm3 with this change; numbers count from the chain's first residue; source: Brevibacillus, culture supernatant (ammonium sulfate precipitate); not shown: 6xHis, C-terminal, kept; 6xHN, C-terminal, kept) VH: QGQLVQSGAEVKKPGASVKVSCKASGYTFTDYEMHWVRQAPIHGLEWIGVIESETGGTAYNQKFKGRVTITADKSTSTAYMELSSLRSEDTAVYYCAREGITTVATTYYWYFDVWGQGTTVTVSS VL: DVVMTQSPLSLPVTLGQPASISCRSSQSIVHSNGNTYLEWYLQKPGQSPQLLIYKVSNRFSGVPDRFSGSGSGTDFTLKISRVEAEDVGVYYCFQGSHVPNTFGQGTKLEIK",134,0.00447,33300,< 1.23,< 1e-05,8160
"toripalimab Fab L.L101I (Fab, V domains shown, as the heavy chain of Sm3; light chain of Sm3 with this change; numbers count from the chain's first residue; source: Brevibacillus, culture supernatant (ammonium sulfate precipitate); not shown: 6xHis, C-terminal, kept; 6xHN, C-terminal, kept) VH: QGQLVQSGAEVKKPGASVKVSCKASGYTFTDYEMHWVRQAPIHGLEWIGVIESETGGTAYNQKFKGRVTITADKSTSTAYMELSSLRSEDTAVYYCAREGITTVATTYYWYFDVWGQGTTVTVSS VL: DVVMTQSPLSLPVTLGQPASISCRSSQSIVHSNGNTYLEWYLQKPGQSPQLLIYKVSNRFSGVPDRFSGSGSGTDFTLKISRVEAEDVGVYYCFQGSHVPITFGQGTKLEIK",34.3,0.00056,16300,< 1.55,< 1e-05,6430
"toripalimab Fab L.L101E (Fab, V domains shown, as the heavy chain of Sm3; light chain of Sm3 with this change; numbers count from the chain's first residue; source: Brevibacillus, culture supernatant (ammonium sulfate precipitate); not shown: 6xHis, C-terminal, kept; 6xHN, C-terminal, kept) VH: QGQLVQSGAEVKKPGASVKVSCKASGYTFTDYEMHWVRQAPIHGLEWIGVIESETGGTAYNQKFKGRVTITADKSTSTAYMELSSLRSEDTAVYYCAREGITTVATTYYWYFDVWGQGTTVTVSS VL: DVVMTQSPLSLPVTLGQPASISCRSSQSIVHSNGNTYLEWYLQKPGQSPQLLIYKVSNRFSGVPDRFSGSGSGTDFTLKISRVEAEDVGVYYCFQGSHVPETFGQGTKLEIK",95.6,0.00392,41000,13.6,0.000124,9060
